{"source": "paper PMC12753827", "about": "(Nature Communications, 2025)", "proteins": {"B1": {"name": "CeLGRwt (full-length C. elegans LGR) (receptor)", "chain": "QNALSLAQTKHSCMALKAEDGEGCTCKQTKRYGQPECCCMGLIVSQLPTNLTADVGYLYLHNTSISVITPNFFDKFPSIRELEIDNSAHLEHIDGSSLSVLSKLRKLSVVKCPNLREISGKLLVNNTRIQNVILKNNGLATMPSLRMTDAHHVLLDRIDLSGNKIKFISDSKVRNVKARTVVLSENKLIEISGYAFTESQFLKLKLNNNPDLRSLSVDAFKNMAGLQTLDLSHTSIDTLPINGLKKLKTLILNDVPTLKSLPSVLSFTDLETAHFTYPHHCCLFKYVDDVTMNDNGKYQRNAKEIHKRICDKREQQKVARRRKRETSGIDFLDMLLKEWTDNSTYTGPDDADDDELPPFVEIGAEPCQSIGEEVQKYYSNITCYPQPDALNPCENIVGYPFLRIAVWVVCLAAIVGNIIVWALLGIVYEKRMRMHYLYMINMSVADMVTGIYLAVLAIADAKMSDEYYRHAVWWQTGWGCRAAGFLAVFASELGIISMFLIAFEMSYNTRQSFRGRRLSPKVGVLLMIGGWLFAIIMAILPWFDVSSYSESSVCLPLRAATIFDKSYLIFGLSFNFLAFAAMALSYGFIVKMLKENETREEDRALITKMTVLVVTDLICWFPTLFFGFTATIGFPLLSLSSAKFVLVFFFPINAFANPFLYVFFTEVIQHRVRSKTLPVIRRITTGPLNAASSLSNFYHSQPPGAHRRSRDEPTSPSGMHLAVTQTTSLNSTPRGSDVSRASDGMLFDYDRRASASPRVSFDIPISPTTPRSDRKNRISLLKRIVSSIPEVSDLSEHSSESHHEHVPHPRRKLRSSLNRILALGRRQEGSADSGRGSIASSAGSRDQNERVSLTSNASSILSPLLSPTNSNILILPPEPSKNRRKSTPAIPLLVVSDCS"}}, "molecular_target": "the molecule itself", "experiment": "SEC", "data": [{"protein": "B1", "values": [{"measurement": "stoichiometry N", "value": 2}]}]}
